According to article PMC7308502, “Genome Segregation by the Venus Flytrap Mechanism: Probing the Interaction Between the ParF ATPase and the ParG Centromere Binding Protein” (Frontiers in Molecular Biosciences, 2020):
One block for each compound: values may come before it.

Legend:
[1] = target: wild-type ParF, His-tagged, purified (plasmid TP228 (in Escherichia coli))
[2] = target: wild-type ParF, His-tagged, purified (plasmid TP228 (in Escherichia coli)); assay: co-sedimentation
[3] = target: wild-type ParF fused to the T18 or T25 fragment of Bordetella pertussis adenylate cyclase (plasmid TP228 (in Escherichia coli)); assay: two-hybrid
ParF [4] = target: T1, ParF (Salmonella enterica, UniProt Q9KJ83); assay: sedimentation assay of higher-order assembly; assay type: binding; details: 2 mM nucleotide, 5 mM MgCl2, 30 mM Tris-HCl pH 8.0, 100 mM KCl, 30 °C
T1 construct: full-length, His-tagged (pET-22b(+)), produced in E. coli BL21(DE3); monomer with ADP, dimer and higher-order with ATP
T1 sequence (Q9KJ83 1-206): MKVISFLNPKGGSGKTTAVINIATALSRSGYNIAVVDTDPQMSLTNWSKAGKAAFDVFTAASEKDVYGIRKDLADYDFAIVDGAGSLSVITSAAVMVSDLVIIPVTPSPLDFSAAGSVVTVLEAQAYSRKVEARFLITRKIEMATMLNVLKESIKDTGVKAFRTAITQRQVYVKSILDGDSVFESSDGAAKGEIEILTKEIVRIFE
Text: sedimentation assay of higher-order assembly on ParF | ATP or non-hydrolyzable ATPγS increased the levels of higher-order assemblies of wild-type ParF

ParF [5] = target: T1, ParF; assay: fluorescence anisotropy titration; assay type: binding; details: read-out: apparent Kd; 20 mM HEPES, 150 mM NaCl, 1 mM MgCl2, pH 7.0; 0.9 μM labelled compound; possible hydrolysis during measurement

- fold stimulation of ParF ATPase activity by ParG (ParF 1 μM, ParG 0-20 μM, 5 μM ATP) [1]: 20 fold
- percent of ParG in the pellet fraction (with ATPγS) [2]: 50%
Compound: ParG, His-tagged, purified (natural protein)

Compound: wild-type ParF fused to the T18 or T25 fragment of Bordetella pertussis adenylate cyclase (natural protein)
- β-galactosidase units (β-galactosidase units) [3]: 700

Compound: Nc1ncnc2c1ncn2[C@@H]1O[C@H](COP(=O)(O)OP(=O)(O)OP(=O)(O)O)[C@@H](O)[C@H]1O [ATP]
- fold increase in pellet fraction (ParF [4]): ~ 2 fold

- percent of ParF in the pellet fraction (with ParG and ATPγS) [2]: 80%
Compound: wild-type ParF, His-tagged, purified (enzyme)

Compound: CNc1ccccc1C(=O)O[C@H]1[C@@H](O)[C@H](n2cnc3c(N)ncnc32)O[C@@H]1CO[P@@](=O)(O)O[P@](=O)(O)OP(=O)(O)O [MANT-ATP]
- Kd (ParF [5]): ~500 nM

Compound: Nc1ncnc2c1ncn2[C@@H]1O[C@H](COP(=O)(O)OP(=O)(O)OP(O)(O)=S)[C@@H](O)[C@H]1O [ATPγS]
- fold increase in pellet fraction (ParF [4]): ~ 2 fold
